Experimental findings from patent publication US20140323404A1 (GUANGDONG MEDICAL COLLEGE, published 2014) are described below.

The target of the experiment is Human coagulation factor XIa (human, UniProt P03951 19-625). As to the kind of experiment: cell-based or functional assay.

B1: NAPTin-2 (peptide)
chain: NPSCGENERHDECSRKECDPKCKYDGTEEKDDEKPVVCLTRVCYGDCICRDGFLRNKNGACVKAEDCELDN
Regarding B1, the “inhibition of fXIa activity, chromogenic assay, polypeptide at 100 nM” value (“inhibition of fXIa activity” for short) was greater than 90%.

B2: NAPTin-4 (peptide)
chain: NPSCGENERHDECSRKECDPKCKYDGTEEKDDEKPVVCLTRVCYGDCICRDGFLRNKNGACVKAEDCELDNME
Turning to B2, the “inhibition of fXIa activity” value was greater than 90%.

B3: NAPTin-5 (peptide)
chain: NPSCGENERHDECSRKECDPKCKYDGTEEKDDEKPVVCLTRVCYGDCICRDGFLRNKNGACVKAEDCEL
For B3, the “inhibition of fXIa activity” value was greater than 90%.

B4: NAPTin-3 (peptide)
chain: NPSCGENERHDECSRKECDPKCKYDGTEEKDDEKPVVCLTRVCYGDCICRDGFLRNKNGACVKAEDCELDNM
As for B4, the “inhibition of fXIa activity” value was greater than 90%.

B5: NAPTin-7 (peptide)
chain: NPSCGENERHDECSRKECDPKCKYDGTEEKDDEKPVVCLTRVCYGDCICRDGFLRNKNGACVKAEDC
As for B5, the “inhibition of fXIa activity” value was greater than 90%.

B6: NAPTin-6 (peptide)
chain: NPSCGENERHDECSRKECDPKCKYDGTEEKDDEKPVVCLTRVCYGDCICRDGFLRNKNGACVKAEDCE
In the case of B6, the “inhibition of fXIa activity” value was greater than 90%.

B7: NAPTin-8 (peptide)
chain: NPSCGENERHDECSRKECDPKCKYDGTEEKDDEKPVVCLTRVCYGDCICRDGFLRNKNGACVKAEDCELDNMEF
As for B7, the “inhibition of fXIa activity” value is greater than 90%.

B8: NAPTin-9 (peptide)
chain: NPSCGENERHDECSRKECDPKCKYDGTEEKDDEKPVVCLTRVCYGDCICRDGFLRNKNGACVKAEDCELDNMEFI
Take B8: the “inhibition of fXIa activity” value was greater than 90%.
